We go through two molecules from patent publication US20210388087A1 (Chugai, published 2021).

This test has as its target T1, CD3 epsilon homodimer protein (UniProt P07766 23-126).
T1 construct: also called CD3 (CD3 epsilon)
As to the kind of experiment: SPR, CD3 epsilon homodimer on chip, one-arm antibody as analyte.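 Also: surface plasmon resonance at 25 °C with CD3 epsilon homodimer amine-coupled to a CM4 sensor chip, antibody injected as analyte, HBS-EP+ as running buffer.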

T1 sequence (P07766 23-126): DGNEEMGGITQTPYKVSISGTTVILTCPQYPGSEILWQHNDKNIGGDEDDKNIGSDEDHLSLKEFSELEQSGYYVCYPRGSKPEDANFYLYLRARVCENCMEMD
Experimental: An appropriate amount of CD3 epsilon homodimer protein was immobilized onto Sensor chip CM4 (GE Healthcare Japan Corp.) by the amine coupling method. Then, the antibody having an appropriate concentration was injected thereto as an analyte and allowed to interact with the CD3 epsilon homodimer protein on the sensor chip. Then, the sensor chip was regenerated by the injection of 10 mmol/L glycine-HCl (pH 1.5). The assay was conducted at 25 degrees C., and HBS-EP+(GE Healthcare Japan Corp.) was used as a running buffer. […] Each parameter was calculated using Biacore T200 Evaluation Software (GE Healthcare Japan Corp.).

B1: CE115HA000 A52aY (antibody, human IgG1, kappa, L234A L235A, N297A, name in Kabat numbering)
heavy: QVQLVESGGGVVQPGRSLRLSCAASGFTFSNAWMHWVRQAPGKGLEWVAQIKYKSNNYATYYAESVKGRFTISRDDSKNSLYLQMNSLKTEDTAVYYCRYVHYGAYYGVDAWGQGTTVTVSSASTKGPSVFPLAPSSKSTSGGTAALGCLVKDYFPEPVTVSWNSGALTSGVHTFPAVLQSSGLYSLSSVVTVPSSSLGTQTYICNVNHKPSNTKVDKKVEPKSCDKTHTCPPCPAPEAAGGPSVFLFPPKPKDTLMISRTPEVTCVVVDVSHEDPEVKFNWYVDGVEVHNAKTKPREEQYASTYRVVSVLTVLHQDWLNGKEYKCKVSNKALPAPIEKTISKAKGQPREPQVYTLPPSRCELTKNQVSLSCAVKGFYPSDIAVEWESNGQPENNYKTTPPVLDSDGSFFLVSKLTVDKSRWQQGNVFSCSVMHEALHNHYTQKSLSLSPDYKDDDDK
chain: EPKSSDKTHTCPPCPAPELLGGPSVFLFPPKPKDTLMISRTPEVTCVVVDVSHEDPEVKFNWYVDGVEVHNAKTKPREEQYNSTYRVVSVLTVLHQDWLNGKEYKCKVSNKALPAPIEKTISKAKGQPREPQVCTLPPSRDELTKNQVSLWCLVKGFYPSDIAVEWESNGQPENNYKTTPPVLDSDGSFFLYSKLTVDKSRWQQGNVFSCSVMHEALHNRYTQKSLSLSP
light: DIVMTQSPLSLPVTPGEPASISCRSSQSLVHSNRNTYLHWYQQKPGQAPRLLIYKVSNRFSGVPDRFSGSGSGTDFTLKISRVEAEDVGVYYCGQGTQVPYTFGQGTKLEIKRTVAAPSVFIFPPSDEQLKSGTASVVCLLNNFYPREAKVQWKVDNALQSGNSQESVTEQDSKDSTYSLSSTLTLSKADYEKHKVYACEVTHQGLSSPVTKSFNRGEC
notes: one-arm antibody
For B1, the “KD ratio (KD of CE115HA000/KD of altered form)” value was determined as 7.71.

B2: CE115HA000 A56D (antibody, human IgG1, kappa, L234A L235A, N297A, name in Kabat numbering)
heavy: QVQLVESGGGVVQPGRSLRLSCAASGFTFSNAWMHWVRQAPGKGLEWVAQIKAKSNNYDTYYAESVKGRFTISRDDSKNSLYLQMNSLKTEDTAVYYCRYVHYGAYYGVDAWGQGTTVTVSSASTKGPSVFPLAPSSKSTSGGTAALGCLVKDYFPEPVTVSWNSGALTSGVHTFPAVLQSSGLYSLSSVVTVPSSSLGTQTYICNVNHKPSNTKVDKKVEPKSCDKTHTCPPCPAPEAAGGPSVFLFPPKPKDTLMISRTPEVTCVVVDVSHEDPEVKFNWYVDGVEVHNAKTKPREEQYASTYRVVSVLTVLHQDWLNGKEYKCKVSNKALPAPIEKTISKAKGQPREPQVYTLPPSRCELTKNQVSLSCAVKGFYPSDIAVEWESNGQPENNYKTTPPVLDSDGSFFLVSKLTVDKSRWQQGNVFSCSVMHEALHNHYTQKSLSLSPDYKDDDDK
chain: EPKSSDKTHTCPPCPAPELLGGPSVFLFPPKPKDTLMISRTPEVTCVVVDVSHEDPEVKFNWYVDGVEVHNAKTKPREEQYNSTYRVVSVLTVLHQDWLNGKEYKCKVSNKALPAPIEKTISKAKGQPREPQVCTLPPSRDELTKNQVSLWCLVKGFYPSDIAVEWESNGQPENNYKTTPPVLDSDGSFFLYSKLTVDKSRWQQGNVFSCSVMHEALHNRYTQKSLSLSP
light: DIVMTQSPLSLPVTPGEPASISCRSSQSLVHSNRNTYLHWYQQKPGQAPRLLIYKVSNRFSGVPDRFSGSGSGTDFTLKISRVEAEDVGVYYCGQGTQVPYTFGQGTKLEIKRTVAAPSVFIFPPSDEQLKSGTASVVCLLNNFYPREAKVQWKVDNALQSGNSQESVTEQDSKDSTYSLSSTLTLSKADYEKHKVYACEVTHQGLSSPVTKSFNRGEC
notes: one-arm antibody
B2: the “KD ratio (KD of CE115HA000/KD of altered form)” value stood at 0.71.
